Biological target: recombinant AAV5 particles (AAV5 capsid) (adeno-associated virus 5) (UniProt Q9YIJ1)
Assay: SPR; Biacore T200; AAV1 or AAV5 particles immobilised on a CM5 chip by amide coupling (sodium acetate pH 4.5); wt or mutated AAVR flowed over at 30 ul/min, 25 C, PBS; triplicate experiments, mean with standard error
Settings: not given
AAVR, sequence (Q8IZA0 whole entry): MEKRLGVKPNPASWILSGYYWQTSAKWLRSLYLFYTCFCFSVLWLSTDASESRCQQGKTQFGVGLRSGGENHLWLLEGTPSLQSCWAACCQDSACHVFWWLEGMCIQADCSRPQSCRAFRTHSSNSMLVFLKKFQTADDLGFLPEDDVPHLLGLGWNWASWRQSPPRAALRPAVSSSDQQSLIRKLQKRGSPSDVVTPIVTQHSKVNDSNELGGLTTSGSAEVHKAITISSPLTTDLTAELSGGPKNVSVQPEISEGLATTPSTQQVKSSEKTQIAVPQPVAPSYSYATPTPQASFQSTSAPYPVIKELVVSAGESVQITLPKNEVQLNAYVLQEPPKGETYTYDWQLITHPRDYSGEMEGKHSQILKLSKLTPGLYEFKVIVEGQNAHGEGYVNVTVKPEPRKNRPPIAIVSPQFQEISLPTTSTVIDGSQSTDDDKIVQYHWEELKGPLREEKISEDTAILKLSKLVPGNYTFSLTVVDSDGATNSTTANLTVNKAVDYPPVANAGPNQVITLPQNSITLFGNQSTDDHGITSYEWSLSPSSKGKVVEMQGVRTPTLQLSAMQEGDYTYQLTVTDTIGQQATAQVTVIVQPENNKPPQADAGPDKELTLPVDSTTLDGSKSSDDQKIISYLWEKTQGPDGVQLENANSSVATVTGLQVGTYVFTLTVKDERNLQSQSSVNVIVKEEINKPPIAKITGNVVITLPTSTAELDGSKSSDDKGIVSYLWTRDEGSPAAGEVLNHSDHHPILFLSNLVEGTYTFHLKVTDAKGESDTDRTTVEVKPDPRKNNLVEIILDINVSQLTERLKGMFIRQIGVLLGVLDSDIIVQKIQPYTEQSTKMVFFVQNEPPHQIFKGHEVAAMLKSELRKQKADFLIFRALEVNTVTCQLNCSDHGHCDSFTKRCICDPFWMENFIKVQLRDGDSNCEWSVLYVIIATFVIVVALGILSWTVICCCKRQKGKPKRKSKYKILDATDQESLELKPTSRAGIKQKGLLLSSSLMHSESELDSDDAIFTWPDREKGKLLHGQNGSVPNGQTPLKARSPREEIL
Substance “AAVR PKD1-5 D437A (from UniProt Q8IZA0-1 1-1049) (domain or fragment)” has a Kd of 252 nM.
In the case of “AAVR PKD1-5 K464A (from UniProt Q8IZA0-1 1-1049) (domain or fragment)”, the Kd is reported as 265 nM.
“AAVR PKD1-5 T434A (from UniProt Q8IZA0-1 1-1049) (domain or fragment)” gave a Kd of 289 nM.
Substance “AAVR PKD1-5 S431A (from UniProt Q8IZA0-1 1-1049) (domain or fragment)” has a Kd of 244 nM.
“AAVR PKD1-5 S433A (from UniProt Q8IZA0-1 1-1049) (domain or fragment)” showed a Kd of 284 nM.
In the case of “AAVR PKD1-5 D429A (from UniProt Q8IZA0-1 1-1049) (domain or fragment)”, the Kd is reported as 243 nM.
Work on “AAVR PKD1-5 K438A (from UniProt Q8IZA0-1 1-1049) (domain or fragment)” yielded a Kd of 270 nM.
Work on “AAVR PKD1-5 Y442A (from UniProt Q8IZA0-1 1-1049) (domain or fragment)” yielded a Kd of 269 nM.
“AAVR PKD1-5 D436A (from UniProt Q8IZA0-1 1-1049) (domain or fragment)” gave a Kd of 295 nM.
For “AAVR PKD1-5 T426A (from UniProt Q8IZA0-1 1-1049) (domain or fragment)”, the Kd was 311 nM.
Work on “AAVR PKD1-5 V427A (from UniProt Q8IZA0-1 1-1049) (domain or fragment)” yielded a Kd of 306 nM.
Work on “AAVR PKD1-5 S425A (from UniProt Q8IZA0-1 1-1049) (domain or fragment)” yielded a Kd of 329 nM.
Substance “AAVR PKD1-5 D435A (from UniProt Q8IZA0-1 1-1049) (domain or fragment)” has a Kd of 234 nM.

Biological target: recombinant AAV1 particles (AAV1 capsid) (adeno-associated virus 1) (UniProt Q9WBP8)
Assay: as above
Settings: not given
“AAVR PKD1-5 L376A (from UniProt Q8IZA0-1 1-1049) (domain or fragment)” showed a Kd of 16.7 nM.
With “AAVR PKD1-5 R353A (from UniProt Q8IZA0-1 1-1049) (domain or fragment)” the Kd was 20.5 nM.
For “AAVR PKD1-5 E378A (from UniProt Q8IZA0-1 1-1049) (domain or fragment)”, the Kd was 19.9 nM.
“AAVR PKD1-5 I349A (from UniProt Q8IZA0-1 1-1049) (domain or fragment)” gave a Kd of 18.5 nM.
In the case of “AAVR PKD1-5 S356A (from UniProt Q8IZA0-1 1-1049) (domain or fragment)”, the Kd is reported as 12.2 nM.
Work on “AAVR PKD1-5 T397A (from UniProt Q8IZA0-1 1-1049) (domain or fragment)” yielded a Kd of 17.7 nM.
With “AAVR PKD1-5 T350A (from UniProt Q8IZA0-1 1-1049) (domain or fragment)” the Kd was 14.2 nM.
“AAVR PKD1-5 K399A (from UniProt Q8IZA0-1 1-1049) (domain or fragment)” gave a Kd of 17.5 nM.
With “wild-type AAVR PKD1-5 domains with a C-terminal His-tag (from UniProt Q8IZA0-1 1-1049) (domain or fragment)” the Kd was 16.2 nM.
Substance “AAVR PKD1-5 D354A (from UniProt Q8IZA0-1 1-1049) (domain or fragment)” has a Kd of 17.4 nM.

Biological target: Adeno-associated virus 1 (AAV1) particle, wild-type capsid (adeno-associated virus 1 (AAV1)) (UniProt Q9WBP8)
Assay: not given
Settings: not given
“AAVR PKD1-5 D435A (from UniProt Q8IZA0-1 1-1049) (receptor)” gave an AAV1-mCherry transduction of AAVR-silenced HEK293T cells expressing AAVR with this mutation (pcDNA3.1(+)-AAVR) (% of AAV1 infection) of 70.
With “AAVR PKD1-5 T434A (from UniProt Q8IZA0-1 1-1049) (receptor)” the AAV1-mCherry transduction of AAVR-silenced HEK293T cells expressing AAVR with this mutation (pcDNA3.1(+)-AAVR) (% of AAV1 infection) was 70.

Biological target: Adeno-associated virus 5 (AAV5) particle, wild-type capsid (adeno-associated virus 5 (AAV5)) (UniProt Q9YIJ1)
Assay: SPR; Biacore T200; AAV1 or AAV5 particles immobilised on a CM5 chip by amide coupling; wt or mutated AAVR flowed over; 30 μl/min, 25 °C, PBS
Settings: not given
In the case of “AAVR PKD1-5 K399A (from UniProt Q8IZA0-1 1-1049) (receptor)”, the Kd is reported as 71900 nM.
For “AAVR PKD1-5 I349A (from UniProt Q8IZA0-1 1-1049) (receptor)”, the Kd was 7 nM.
For “AAVR PKD1-5 D354A (from UniProt Q8IZA0-1 1-1049) (receptor)”, the fold decrease of binding affinity against wt AAVR was 100 fold.
“AAVR PKD1-5 S356A (from UniProt Q8IZA0-1 1-1049) (receptor)” showed a fold decrease of binding affinity against wt AAVR of 100 fold.
In the case of “AAVR PKD1-5 T397A (from UniProt Q8IZA0-1 1-1049) (receptor)”, the fold decrease of binding affinity against wt AAVR is reported as 100 fold.
Substance “Adeno-associated virus receptor (AAVR), wild-type, PKD1-5 domains (from UniProt Q8IZA0-1 1-1049)” has a Kd of 287 nM.

Biological target: Adeno-associated virus 1 (AAV1) particle, wild-type capsid (adeno-associated virus 1 (AAV1)) (UniProt Q9WBP8)
Assay: as above
Settings: not given
Substance “AAVR PKD1-5 K464A (from UniProt Q8IZA0-1 1-1049) (receptor)” has a Kd of 1.32 nM.
With “Adeno-associated virus receptor (AAVR), wild-type, PKD1-5 domains (from UniProt Q8IZA0-1 1-1049)” the Kd was 13.9 nM.

Biological target: Adeno-associated virus receptor (AAVR), wild-type, PKD1-5 domains (UniProt Q8IZA0)
Assay: not given
Settings: not given
With “AAV5 particle with capsid mutation Y542A (from UniProt Q9YIJ1 1-724) (complex)” the transduction of HEK293T cells (endogenous AAVR) by the mutated AAV5-GFP, functional titer against wt AAV5 was 15 % of wt AAV5.
In the case of “AAV5 particle with capsid mutation E708A (from UniProt Q9YIJ1 1-724) (complex)”, the transduction of HEK293T cells (endogenous AAVR) by the mutated AAV5-GFP, functional titer against wt AAV5 is reported as 50 % of wt AAV5.
In the case of “AAV5 particle with capsid mutation Q532A (from UniProt Q9YIJ1 1-724) (complex)”, the transduction of HEK293T cells (endogenous AAVR) by the mutated AAV5-GFP, functional titer against wt AAV5 is reported as 50 % of wt AAV5.

Biological target: AAV2 capsid (Adeno-associated virus 2) (UniProt P03135)
Assay: not given
Settings: cited from earlier work
In the case of AAVR (from UniProt Q8IZA0), the Kd is listed as 57 nM.

From article PMC6704107
